According to paper PMC7437983 (Traffic (Copenhagen, Denmark), 2020):

Target: Nup358-min-GST, human Nup358 residues 2148-2240 (human, UniProt P49792 2148-2240)
Experiment: pull-down

Sequence of Nup358-min-GST, human Nup358 residues 2148-2240 (P49792 2148-2240): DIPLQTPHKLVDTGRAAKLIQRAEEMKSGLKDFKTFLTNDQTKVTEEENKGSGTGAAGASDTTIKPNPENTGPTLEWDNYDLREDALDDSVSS

binding result: binds
B1: human Bicaudal D2 C-terminal cargo-binding domain, wild type (domain or fragment, UniProt Q8TD16 715-804, looked up)
chain: YENEKAMVTETMMKLRNELKALKEDAATFSSLRAMFATRCDEYITQLDEMQRQLAAAEDEKKTLNSLLRMAIQQKLALTQRLELLELDHE
